# Where a chain is given by its changes, count along the chain named. Where no end group is shown, it is not given here. [ ]: non-standard residue; d: D form. pT = C[C@@H](OP(=O)(O)O)[C@H](N)C(=O)O
# T1: Tau T231 peptide (UniProt P10636)
# T1 chain: KVAVVRTPPKSPS
# T2: Tau T231P phosphopeptide (UniProt P10636)
# T2 chain: KVAVVR[pT]PPKSPS
# T3: Tau S202 peptide
# T3 chain: GYSSPGSPGTPGSR
# T4: alpha casein (UniProt P02662 P02662:16-214)
# T4 sequence: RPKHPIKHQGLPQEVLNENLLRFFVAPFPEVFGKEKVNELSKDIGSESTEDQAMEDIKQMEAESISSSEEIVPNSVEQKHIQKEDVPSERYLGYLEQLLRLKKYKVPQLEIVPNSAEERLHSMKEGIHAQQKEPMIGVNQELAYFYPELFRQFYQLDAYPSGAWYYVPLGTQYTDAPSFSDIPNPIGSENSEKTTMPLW
# T5: beta casein (UniProt P02666 P02666:16-224)
# T5 sequence: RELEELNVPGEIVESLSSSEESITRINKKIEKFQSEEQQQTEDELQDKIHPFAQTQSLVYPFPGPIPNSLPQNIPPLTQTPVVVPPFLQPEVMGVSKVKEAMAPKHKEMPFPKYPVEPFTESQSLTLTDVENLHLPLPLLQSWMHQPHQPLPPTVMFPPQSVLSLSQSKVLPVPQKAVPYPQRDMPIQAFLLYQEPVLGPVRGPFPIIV
# B1: Ref2 (ssDNA)
# DNA: AACGAGAAGCGCGATCACAT
# B2: IT2 (ssDNA)
# DNA: CAGCACCGTCAACTGAATAAGGACTGCTTAGGATTGCGATGATTCAGGGTGATGCGATGGAGATGT
# B3: IT2a (ssDNA)
# DNA: CTGAATAAGGACTGCTTAGGATTGCGATGATTCAG
# B4: IT6a (ssDNA)
# DNA: CACCGTCAACTGAATGTTGTCGTCAGAGGTTATAACCTGAACTCGGTG
# B5: IT2b (ssDNA)
# DNA: AAGGACTGCTTAGGATTGC
# B6: IT4 (ssDNA)
# DNA: CAGCACCGTCAACTGAATGGGTTGGCCGGGCAGCGGGGGGTAGGCTTGGTGATGCGATGGAGATGT
# B7: IT5 (ssDNA)
# DNA: CAGCACCGTCAACTGAATGGCGGGGGGTCAGGTCGGGGTAAGGTGAGCGTGATGCGATGGAGATGT
# B8: IT9 (ssDNA)
# DNA: B7 DNA with G19T
# B9: Ref1 (ssDNA)
# DNA: GCGGAGCGTGGCAGG
# B10: IT1c (ssDNA)
# DNA: GCTTGGTCCTCCCGGGGTTCTGGAAAAGC
# B11: IT1d (ssDNA)
# DNA: TTGGTCCTCCCGGGGTTCTGGAAAA
# B12: IT6 (ssDNA)
# DNA: CAGCACCGTCAACTGAATGTTGTCGTCAGAGGTTATAACCTGAACTCGGTGATGCGATGGAGATGT
# B13: IT3 (ssDNA)
# DNA: CAGCACCGTCAACTGAATGGGGAGAGTGGTGGGGCGGGGGCCGGATCCGTGATGCGATGGAGATGT
# B14: Ref3 (ssDNA)
# DNA: CTTCTGCCCGCCTCCTTCC
# B15: IT1 (ssDNA)
# DNA: CAGCACCGTCAACTGAATTGCTTGGTCCTCCCGGGGTTCTGGAAAAGCGTGATGCGATGGAGATGT
# Experiments:
# [1] = molecular target: T1, Tau T231 peptide; assay: flow; no significant background binding; PBS + 5 mM MgCl2, 4 C; conditions: protein: synthetic; tags: synthetic (GenScript), N-terminal acetyl, C-terminal Ahx-Ahx-His6; label: fluorophore
# Method: (§1) For each sample, 20 μL of peptide-beads or bare beads (˜1.4×105 beads) was washed against 500 μL of PBS three times. After removing the supernatant, beads were suspended in 80 μL of buffer containing either DNA pool or aptamer candidate to be tested at 250 nM for 30 min, but the DNA concentration used was 100 nM instead of 250 nM when examining the saturation of fluorescent signal with the selection pools. Incubations were carried out at 4° C. unless stated otherwise. Afterwards, beads were washed against 500 μL of PBS with additional 5 mM Mg2+ twice and then were suspended in 80 μL of buffer for flow cytometric analysis.
# The supernatant collected after the fourth negative incubation then was carried to the 8th round of positive incubation, in which the concentration of the peptide solutions used to modify Ni-NTA beads was doubled to 800 μg/mL. Moving forward, the following selection rounds were conducted with sandwiched negative incubations to eliminate the possibility of enriching any oligonucleotides recognizing the surface of the beads and with positive beads prepared with more concentrated peptide solutions (800 μg/mL) to raise the recovery rate of the desired candidates. The SELEX progress was then evaluated again with amplicons obtained in Round #10 and Round #11. […] Four oligonucleotides were used as reference sequences.
# [2] = molecular target: Tau441 (microtubule-associated protein tau, 2N4R) (UniProt P10636-8 P10636-8:1-441); assay: BLI; PBS + 5 mM Mg2+, 30 C; conditions: tags: His-tag (SignalChem) for BLI, rPeptide Tau441 for aggregation assay
# Chain of Tau441 (microtubule-associated protein tau, 2N4R) (P10636 other isoform, or with tags, fused parts or gaps): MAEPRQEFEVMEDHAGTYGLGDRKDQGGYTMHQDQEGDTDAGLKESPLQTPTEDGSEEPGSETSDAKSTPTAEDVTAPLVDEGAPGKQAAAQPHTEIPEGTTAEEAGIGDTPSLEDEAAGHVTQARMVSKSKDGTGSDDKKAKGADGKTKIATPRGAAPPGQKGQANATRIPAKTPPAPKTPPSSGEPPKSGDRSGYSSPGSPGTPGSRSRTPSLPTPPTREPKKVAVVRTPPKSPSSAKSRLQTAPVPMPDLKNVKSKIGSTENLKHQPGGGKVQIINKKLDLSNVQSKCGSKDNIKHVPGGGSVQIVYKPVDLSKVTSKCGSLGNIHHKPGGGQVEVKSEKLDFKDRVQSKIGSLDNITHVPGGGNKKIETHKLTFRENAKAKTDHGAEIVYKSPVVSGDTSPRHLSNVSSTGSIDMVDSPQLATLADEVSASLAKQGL
# Method: (§2) The binding affinities and binding kinetics of the selected aptamers were determined on an Octet RED384 instrument (Pall Fortebio). All measurements were performed on 384-well plates that were agitated at 1000 rpm at 30° C. The his-tag peptides were immobilized at a concentration of 5 μg/mL on Ni-NTA sensors for 10 minutes, followed by rinsing the sensors in PBS for 10 min. Then the sensors were brought into fresh association buffer (PBS with 5 mM Mg2+) to establish a baseline for another 10 min. For kinetic analysis, the peptide-immobilized sensors were transferred to the wells containing aptamer dilutions (1 μM, 1.5 μM, 2 μM, 3 μM, 4 μM) for the association step (10 min), and then moved to the wells with fresh buffer for the dissociation step (10 min). A reference sensor was used without the treatment with aptamer solution but others steps remained the same. […] Association rate constants (kon), dissociation rate constants (koff), and equilibrium dissociation constants (Kd) for each aptamer binding to its target peptide were calculated using the FORTEBIO® data analysis software 10.0.
# [3] = molecular target: T2, Tau T231P phosphopeptide; assay: flow; binding lost completely; 4 C; conditions: protein: synthetic
# Method: as §1, with “BD ACCURI™ C6 flow cytometry (BD Immunocytometry Systems) was used to monitor the enrichment of aptamer candidates during the selection process and to evaluate the binding specificity of the selected aptamer candidates. For” for “For”
# [4] = molecular target: T1, Tau T231 peptide; assay: flow; binding lost completely; 4 C; conditions: protein: synthetic; tags: synthetic peptide (GenScript), N-terminal acetyl, C-terminal (Ahx)2-His6
# Method: as §1, with “BD ACCURI™ C6 flow cytometry (BD Immunocytometry Systems) was used to monitor the enrichment of aptamer candidates during the selection process and to evaluate the binding specificity of the selected aptamer candidates. For” for “For”
# [5] = molecular target: T3, Tau S202 peptide; assay: flow; binding lost completely; 4 C; conditions: protein: synthetic; tags: synthetic peptide (GenScript), N-terminal acetyl, C-terminal (Ahx)2-His6
# Method: as §1, with “BD ACCURI™ C6 flow cytometry (BD Immunocytometry Systems) was used to monitor the enrichment of aptamer candidates during the selection process and to evaluate the binding specificity of the selected aptamer candidates. For” for “For”
# [6] = molecular target: T4, alpha casein; assay: EMSA; 200 nM aptamer, 0.05 mg/mL protein, 4 C; conditions: label: 5'-FAM (flow)
# [7] = molecular target: BSA (UniProt P02769 P02769:25-607); assay: EMSA; 200 nM aptamer, 0.05 mg/mL protein, 4 C; conditions: label: 5'-FAM (flow)
# Chain of BSA (P02769 25-607, one chain of several): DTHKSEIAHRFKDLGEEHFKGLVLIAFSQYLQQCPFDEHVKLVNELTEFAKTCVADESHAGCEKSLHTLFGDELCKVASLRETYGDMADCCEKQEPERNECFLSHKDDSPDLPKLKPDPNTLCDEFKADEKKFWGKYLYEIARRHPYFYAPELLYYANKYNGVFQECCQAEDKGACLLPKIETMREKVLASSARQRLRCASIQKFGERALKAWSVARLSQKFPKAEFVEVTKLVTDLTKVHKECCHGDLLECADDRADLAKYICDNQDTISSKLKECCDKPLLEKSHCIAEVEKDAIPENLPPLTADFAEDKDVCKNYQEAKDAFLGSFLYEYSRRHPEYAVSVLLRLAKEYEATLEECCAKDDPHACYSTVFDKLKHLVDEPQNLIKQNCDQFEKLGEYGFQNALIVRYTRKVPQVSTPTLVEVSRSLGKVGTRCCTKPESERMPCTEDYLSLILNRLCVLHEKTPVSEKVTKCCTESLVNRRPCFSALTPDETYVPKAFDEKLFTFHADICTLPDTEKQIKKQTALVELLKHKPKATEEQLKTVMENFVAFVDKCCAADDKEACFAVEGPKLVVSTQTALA
# [8] = molecular target: T5, beta casein; assay: EMSA; 200 nM aptamer, 0.05 mg/mL protein, 4 C; conditions: label: 5'-FAM (flow)
# [9] = molecular target: UCH-L1 (UniProt P09936 P09936:1-223); assay: EMSA; 200 nM aptamer, 0.05 mg/mL protein, 4 C; conditions: label: 5'-FAM (flow)
# Chain of UCH-L1 (P09936 whole entry, one chain of several): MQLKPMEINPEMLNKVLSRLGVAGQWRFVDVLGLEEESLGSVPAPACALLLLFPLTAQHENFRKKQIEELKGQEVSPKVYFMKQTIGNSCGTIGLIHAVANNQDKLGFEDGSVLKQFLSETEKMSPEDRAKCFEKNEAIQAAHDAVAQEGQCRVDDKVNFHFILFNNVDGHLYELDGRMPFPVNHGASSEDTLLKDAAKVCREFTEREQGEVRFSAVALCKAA
# [10] = molecular target: T1, Tau T231 peptide; assay: BLI; PBS + 5 mM Mg2+, 30 C; conditions: protein: synthetic; tags: synthetic peptide (GenScript), N-terminal acetyl, C-terminal (Ahx)2-His6
# Method: as §2
# [11] = molecular target: T1, Tau T231 peptide; assay: flow; binding lost; 4 C; conditions: protein: synthetic; tags: synthetic peptide (GenScript), N-terminal acetyl, C-terminal (Ahx)2-His6
# Method: as §1, with “BD ACCURI™ C6 flow cytometry (BD Immunocytometry Systems) was used to monitor the enrichment of aptamer candidates during the selection process and to evaluate the binding specificity of the selected aptamer candidates. For” for “For”
binder,measurement,setting,value
B1,binding result,[1],no binding
B2,Kd,[2]; label: 5'-FAM (flow),5.5 nM
B3,Kd,[2]; hairpin,19.5 nM
B4,Kd,[2],28.2 nM
B5,binding result,[3],no binding
same,binding result,[4],no binding
same,binding result,[5],no binding
B6,binding result,[6],no binding
same,binding result,[7],no binding
same,binding result,[8],no binding
same,binding result,[9],no binding
same,Kd,[2]; label: 5'-FAM (flow),68 nM
B7,binding result,[6],no binding
same,binding result,[7],no binding
same,binding result,[8],no binding
same,binding result,[9],no binding
same,Kd,[2]; label: 5'-FAM (flow),7.6 nM
B8,binding result,[6],no binding
same,binding result,[7],no binding
same,binding result,[8],no binding
same,binding result,[9],no binding
same,Kd,[2]; label: 5'-FAM (flow),22.8 nM
B9,binding result,[1],no binding
B10,Kd,[10],46 nM
same,Kd,[2],13 nM
B11,binding result,[11],no binding
B12,Kd,"[2]; label: 5'-FAM (flow), branched hairpin (predicted)",26.8 nM
B13,binding result,[6],no binding
same,binding result,[7],no binding
same,binding result,[8],no binding
same,binding result,[9],no binding
same,Kd,[2]; label: 5'-FAM (flow),17 nM
B14,binding result,[1],no binding
B15,Kd,[2]; label: 5'-FAM (flow),9 nM
